The values below come from the RNAGym collection of RNA variant scans (doi:10.1073/pnas.2313332121).

B1: TPR t1 (parent)
chain: GACCAAUCUGCCCUCAGAGCUCGAGAACAUCUUCGGAUGCAGAGGAGGCAGGCUUCGGUGGCGCGAUAGCGCCAACGUCCUCAACCUCCAAUGCAUCCCACCACAUGAUGAUGCCUGAAGAGCCUUGGUUUUUUG

The variants in the data set derive from B1. In words: polymerase ribozyme fitness, log enrichment relative to wild type (log ratio); higher = more active; in vitro selection for triplet polymerase activity. A digest of the protocol: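 Each subunit of a heterodimeric triplet polymerase ribozyme was mutagenized into a library by PCR, transcribed, and subjected to one round of in vitro selection, run in triplicate. Libraries were annealed with a biotinylated primer, the partner subunit and triplets, incubated frozen at −7 °C, and extended constructs were gel-excised, captured on streptavidin beads and recovered by RT-PCR. Input and output libraries were sequenced on Illumina, keeping genotypes with ≥10 input reads and ≥1 read per output. Fitness is log base 2 of genotype enrichment divided by wild-type enrichment, from inverse-variance-weighted replicate averages.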
For GACCAAUCUGCCCUCAGAGCUGGAGAACAUCUUCGGAUGCAGAGGAGGCCGGCUUCGGUGGCGCGAUAGCGCCAGCGUCCUCAACCUCCAAUGCAUCCCACCACAUGAUGAUGCCUGAAGAGCCUUGGUUUUUUG, the “polymerase ribozyme fitness (log ratio)” value was -3.94.
As for GACCAAUCUGCCCUCAGAGCUGGAGAACAUCUUCGGAUGCAGAGGAGGCAGGCUUCGGUGGCGCGAUAGCGCCAACGUCCUCAACCUCCAAUGCAUCCCACCACAUGAUCAUGCCUGAAGAGGCUUGGUUUUUUG, the “polymerase ribozyme fitness (log ratio)” value is -5.98.
Turning to GACCAAUCUGCCCUCAGAGCUGGAGAACAUCUUCGGAUGCAGAGGAGGCAGGCUUCGGUGGCGCGAUAUCGCCAACGUCCUCAACCUCCAAUGCAUCCCACCACAUGAUGAAGCCUGUAGAGCCUUGGUUUUUUG, the “polymerase ribozyme fitness (log ratio)” value was -0.675.
Consider GACCAAUCUGCCCUCAGAGCUGGAGAACAUCUUCGGAUGCAGAGGAGGCAGGCUUCGGUGGCGCGAUAGCGCAAACGUCCUCAACCUCCAAUACAUCCCACCACAUGAUGAUGCCUGAAGAGCCUUGGUUUUUUG, for which the “polymerase ribozyme fitness (log ratio)” value was -4.3.
With GACCAAUCUGCCCUCAGAGCUGGAGAACAUCUUUGGAAGCAGAGGAGGCAGGCCUCGGUGGCGCGAUAGCGCCAACGUCCUCCACCUCCAAUGCAUCCCACCACAGGAAGAUGGCUGAAGAGCCUUGGUUUUUUG the figure was -6.61.
Under GACCAAUCUGCCCUCAGAGCUGGAGAACAUCUUCGGAUGCAGAGGAGGCAGGCUUCGGUGGCGCGAUAGCGCCAAUCUCCUCAACCUCCAAUGCAUCCCACCACAUGAUGAUGCCUGAAGAGCUUUGGUUGUUUG stands -3.47; under GACCAAUCUGCCCUCAGAGCUGGAGAACAUCUUCGGAUGCAGAGGAGGCAGGUUUCGGUGGCGCGAUAGCGCCAACGUCCUCAAUCUCCAAUGCAUCCCACCACAUGAUGAAGCCUGAAGAGCCUUGGUUUUUUG, -3.51.
For GACCAAUCUGCCCUCAGAGCUGGAGAACAUCUUCGGAUGCAGAGGAGGCAGGCUUCGGUGGCGCGAUAGCGCCAACGUCCUCAACCUCCAAUCCAUCCCACCGCAUGAUUAUGCCUGAAGAGCCUUGGUUUUUUG, the “polymerase ribozyme fitness (log ratio)” value is -6.45.
Regarding GACCAAUCUGCCCUCAGAGCUGAAGAACAUCUUCGGAUGCAGAGGAGGCAGGCUUCGGUGGCGCGAUAGCGCCAACGUCCUCAACCUCUAAUGCAUCCCACCACAUGAUGAUGUCUGAAGAGCCUUGGUUUUUUG, the “polymerase ribozyme fitness (log ratio)” value is -4.41.
As for GACCAAUCUGCCCUCAGAGCUGGAGAACAUCUUCGGAUGCAGAGGAGCCAGGCUUCGGUGGCGCGAUAGCGCCAACGUCCUCAAGCUCCAAUGCAUCCCACCACAUGAUGAGGCCUGAAGAGCCUUGGUUUUUUG, the “polymerase ribozyme fitness (log ratio)” value was -3.
With GACCAAUCUGCCCUCAGAGCUGGAGAACAUCUUCGGAUGCAGAGGAGGAAGGCUUCGGUGGCGCGAUAGCGCCAACGUCCUCAACCUCCAAUGCAUCCCACCACAUGAUGAUGCCUUAAGAGCCUUGGUUUUUUG the figure was -3.11; with GACCAAUCUGCCCUCAGAGCUGGAGAACAUCUUCGGAUGCAGAGGAGGCAGGCUUCGGUGGCGUGAUAGCGCCAACGUCCUCAACCUCCAAUGCAUCCCACCACAUGAUGAGGCCUGAAGAGCCUUGGUUUUUUG, -2.89.
With GACCAAUCUGCCCUCAGAGCUAGAGAACAUCUUCGGAUGCAGAGGAGGCAGGCUUCGGUGGCGCGAUAGCGCCAACGUCCUCAACCUCCAAUGCAUCCCACCACAUGAUGAUGCCCGAAGGGCCUUGGCUUUUUG the figure was -5.72; with GACCAAUCUGCCCUCAGAGCUGGAGAACAUCUUCGGAUGCAGAGGAGGCAGGCUUCGGUGCCGCGAUCGCGCCAACGUCCUCAACCUCCAAUGCAUCCCACCACAUGAUGAUGCCUGAAGAGUCUUGGUUUUUUG, -6.92.
For the variant GACCAAUCUGCCCUCAGAGCUGGAGAACAUCUUCGGAUACAGAGGAGGCAGGCUUUGGUGGCGCGAUAGCGCCAACGUCCUCAACCUCCAAUGCAUCCCACCACAUGAUGAUGCCUGAAGAGCCUUGGUUUUUUG, the “polymerase ribozyme fitness (log ratio)” value is -3.12.
With GACCAAUCUGCCCUCAGAGCUGGAGAACAUCUUCGGAUGCAGAGGAGGCGGGCUUCGGUGGCGCGAUAGCGCGAACGUCCUCAACCUCCAAUGAAUCCCACCACAUGAUGAUGCCUGAACAGCCUUGGUUUUUUG, the “polymerase ribozyme fitness (log ratio)” value was -4.89.
Consider GACCAAUCUGCCCUCAGAGCUGGAGAACAUCUUCGGAUGCAGAGGAGCCAGGCUUCGGUGGCGCGAUAGCGCCAACAUCCUCAAGCUCCAAUGCAUCCCACCACAUGAUGAGGCCUGAAGAGCCUUGGUUUUUUG, for which the “polymerase ribozyme fitness (log ratio)” value was -3.5.
Turning to GACCAAUCUGCCCUCAGAGCUGGAGAACAUCUUCGGAUGCAGAGGAGGCAAGCUUCGGUGGCGCGAUAGCGGCAACGUCCUCAACCUCCAAUGCAUCCCACCACAUGAUGAUGCCUGAAGAGCCUUGGUUUUUUG, the “polymerase ribozyme fitness (log ratio)” value is -4.82.
With GACCAAUCUGCCCUCAGAGCUGGAGAACAUCUUCGGAUGCAGAGAAGGCAGGCUUCGGUGGCGCGAUAGCGCCAACGUCCUCAACCUGCAAUGCAUCCCACCACAUGAUGAUGCCUGAAGAGCCUUGGUUUUUUG, the “polymerase ribozyme fitness (log ratio)” value is -4.78.
GACCAAUCUGCCCUCAGAGCUGGAGAACAUCUUCGGAUGCAGAGGAGGCAGGGUUCGGUGGCCCGAUAGCGCCAACGUCCUCAACCUCCAAUGCAUCCCACCACAUGAUGAUUCCUGAAGAGCCUUGGUUUUUUG: the “polymerase ribozyme fitness (log ratio)” value is -5.64.
With GACCAAUCUGCCCUCAGAGCUGGAGAACAUCUUCGGAUGCAGAGGAGGCAGGCUUCGGUGGCGCGAUAGCGCCAACGUCCUCAACCUCCAAUGCAUCCCACCUCAUGAUGAUGCCUGAAGAGCCUUGGUUUUUUG the figure was -4.6.
